The record followed here is article PMC2857095 (The Journal of Biological Chemistry, 2010).

This experiment deals with T1, DNA mismatch repair protein MutS, wild type (E. coli, UniProt P23909 1-853).
T1 sequence (looked up): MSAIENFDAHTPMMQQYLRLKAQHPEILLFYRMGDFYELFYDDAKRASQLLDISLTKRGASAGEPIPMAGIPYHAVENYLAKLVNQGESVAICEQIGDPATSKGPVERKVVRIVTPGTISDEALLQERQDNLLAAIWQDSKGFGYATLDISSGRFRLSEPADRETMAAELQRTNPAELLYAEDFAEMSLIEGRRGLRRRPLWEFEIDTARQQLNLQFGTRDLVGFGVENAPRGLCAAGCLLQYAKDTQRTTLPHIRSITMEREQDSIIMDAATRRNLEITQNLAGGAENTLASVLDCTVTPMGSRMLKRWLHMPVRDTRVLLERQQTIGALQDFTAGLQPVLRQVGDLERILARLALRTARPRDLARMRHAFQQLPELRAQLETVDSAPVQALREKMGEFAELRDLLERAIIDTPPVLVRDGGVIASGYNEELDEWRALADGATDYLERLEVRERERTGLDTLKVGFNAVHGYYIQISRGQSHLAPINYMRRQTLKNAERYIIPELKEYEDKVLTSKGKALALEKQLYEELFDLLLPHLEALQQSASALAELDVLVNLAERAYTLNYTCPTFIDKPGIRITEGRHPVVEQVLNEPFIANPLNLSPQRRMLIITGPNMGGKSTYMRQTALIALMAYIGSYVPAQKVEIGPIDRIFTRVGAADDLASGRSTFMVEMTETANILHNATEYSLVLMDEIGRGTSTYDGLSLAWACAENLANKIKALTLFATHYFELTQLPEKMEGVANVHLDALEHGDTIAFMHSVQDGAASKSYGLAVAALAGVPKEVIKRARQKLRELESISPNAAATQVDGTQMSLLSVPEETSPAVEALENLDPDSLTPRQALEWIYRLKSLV
Description: SPR. In general terms: In SPR one partner is held on a chip, and binding of the other changes the refractive index at the surface.

B1: MutL (natural protein, UniProt P23367 1-615, looked up)
chain: MPIQVLPPQLANQIAAGEVVERPASVVKELVENSLDAGATRIDIDIERGGAKLIRIRDNGCGIKKDELALALARHATSKIASLDDLEAIISLGFRGEALASISSVSRLTLTSRTAEQQEAWQAYAEGRDMNVTVKPAAHPVGTTLEVLDLFYNTPARRKFLRTEKTEFNHIDEIIRRIALARFDVTINLSHNGKIVRQYRAVPEGGQKERRLGAICGTAFLEQALAIEWQHGDLTLRGWVADPNHTTPALAEIQYCYVNGRMMRDRLINHAIRQACEDKLGADQQPAFVLYLEIDPHQVDVNVHPAKHEVRFHQSRLVHDFIYQGVLSVLQQQLETPLPLDDEPQPAPRSIPENRVAAGRNHFAEPAAREPVAPRYTPAPASGSRPAAPWPNAQPGYQKQQGEVYRQLLQTPAPMQKLKAPEPQEPALAANSQSFGRVLTIVHSDCALLERDGNISLLSLPVAERWLRQAQLTPGEAPVCAQPLLIPLRLKVSAEEKSALEKAQSALAELGIDFQSDAQHVTIRAVPLPLRQQNLQILIPELIGYLAKQSVFEPGNIAQWIARNLMSEHAQWSMAQAITLLADVERLCPQLVKTPPGGLLQSVDLHPAIKALKDE
On to B1, for which the binding result is reported as “binds”.
